Experimental data from patent publication US7037497.

Experiments:
[1] = biological target: HIV-1JR-FL envelope glycoprotein gp120/gp41 on HeLa-EnvJR-FL+ cells (HIV-1 JR-FL); assay: cell-based or functional assay
[2] = biological target: CCR5 chemokine receptor on the cell surface (UniProt P51681)
[3] = biological target: CCR5 chemokine receptor on the cell surface (UniProt P51681); assay: cell-based or functional assay
[4] = biological target: CCR5 chemokine receptor on the cell surface (UniProt P51681); assay: flow cytometry on L1.2-CCR5+ cells, PE anti-mouse IgG
[5] = biological target: CCR5 chemokine receptor on the cell surface (UniProt P51681); assay: flow cytometry on PHA/IL-2-stimulated PBMC

Sequence of UniProt P51681 (P51681 whole entry): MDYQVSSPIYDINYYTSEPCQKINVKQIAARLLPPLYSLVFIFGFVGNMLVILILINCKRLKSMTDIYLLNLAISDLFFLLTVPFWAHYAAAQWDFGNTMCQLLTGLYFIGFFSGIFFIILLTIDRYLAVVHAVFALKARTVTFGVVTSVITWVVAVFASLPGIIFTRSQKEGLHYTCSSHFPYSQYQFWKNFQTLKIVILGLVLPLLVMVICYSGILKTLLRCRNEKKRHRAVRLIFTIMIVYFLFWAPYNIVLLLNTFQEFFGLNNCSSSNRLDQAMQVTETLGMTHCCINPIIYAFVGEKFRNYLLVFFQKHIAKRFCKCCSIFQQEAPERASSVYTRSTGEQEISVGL

| Substance | K (= IC50) of the median effect fit, inhibition of env-mediated membrane fusion (RET assay) [1] [µg/mL] | IC50 [2] [µg/mL] | IC50, inhibition of JR-FL entry (luciferase reporter virus, U87MG-CD4+CCR5+ cells) [3] [µg/mL] | IC50, inhibition of cell-cell fusion (RET assay, PM1 and HeLa-EnvJR-FL+ cells) [3] [µg/mL] | K (= IC50) of the median effect fit, inhibition of cell-cell fusion (RET assay) [3] [µg/mL] | % of cells stained (% of L1.2-CCR5+ cells) [4] | % of cells stained [5] | IC50, inhibition of RANTES-induced calcium influx in L1.2-CCR5+ cells [3] [µg/mL] | IC50 of calcium influx inhibition, PA14 against 2D7 [3] [fold] | fold difference of m.f.i. against PA9 [5] [fold] |
| --- | --- | --- | --- | --- | --- | --- | --- | --- | --- | --- |
| T-20 peptide | 0.017 | – | – | – | – | – | – | – | – | – |
| anti-CCR5 mAb 2D7 (antibody) | – | 1.38 | 0.026 | 1.6 | 0.36 | > 90 | > 20 % of PBMC | – | – | – |
| CD4-IgG2 (from UniProt P01730 26-204; P01730 26-204) (Fc fusion) | 0.31 | – | – | – | – | – | – | – | – | – |
| anti-CCR5 monoclonal antibody PA14 (ATCC No. HB-12610) | – | 1.58 | 0.024 | 1.7 | – | > 90 | > 20 % of PBMC | 50 | 8 | 7 |
